Assay results taken from doi:10.1101/2023.12.01.569227 (bioRxiv, 2023).
Changes are numbered by the printed parent chain.

B1: VHH-72 (VHH)
VHH: QVQLQESGGGLVQAGGSLRLSCAASGRTFSEYAMGWFRQAPGKEREFVATISWSGGSTYYTDSVKGRFTISRDNAKNTVYLQMNSLKPDDTAVYYCAAAGLGTVVSEWDYDYDYWGQGTQVTVSS
B2: Seq1 (VHH)
VHH: B1 VHH with Y32T, G56R, S57G, A98Y, L101Y, T103V
B3: Seq2 (VHH)
VHH: B1 VHH with T28G, S57G, A98R, L101F, T103V, V104W
B4: Seq3 (VHH)
VHH: B1 VHH with T28M, Y32T, G56R, S57G, A98G, L101Y, T103V, V104Y
B5: Seq4 (VHH)
VHH: B1 VHH with T28S, G56R, S57A, A98R, L101Y, T103V
B6: Seq5 (VHH)
VHH: B1 VHH with T28M, G56K, S57G, A98R, L101F, T103V, V104Y
B7: Seq6 (VHH)
VHH: B1 VHH with T28L, G56R, A98K, L101W, T103V
B8: Seq7 (VHH)
VHH: B1 VHH with R27L, T28K, Y32T, G56R, A98R, L101Y, T103V
B9: Seq8 (VHH)
VHH: B1 VHH with R27Y, T28G, G56R, A98R, L101W, T103V
B10: Seq11 (VHH)
VHH: B1 VHH with T28K, G56R, S57L, A98G, L101Y, T103V

The binders below were run against SARS-CoV-2 RBD (SARS-CoV-2, Wuhan-Hu-1, UniProt P0DTC2, biotinylated with an EZ-Link NHS-PEG4 biotinylation kit) (assay: BLI).

| Binder | fold weaker binding than to SARS-CoV-1 RBD |
| --- | --- |
| B1 | > 5 fold |

Each binder was assayed against SARS-CoV-1 RBD (SARS-CoV-1 (SARS-CoV), Urbani, UniProt P59594, biotinylated with an EZ-Link NHS-PEG4 biotinylation kit) (assay: BLI).

| Binder | binding result |
| --- | --- |
| B1 | binds |
| B2 | binds |
| B3 | binds |
| B4 | binds |
| B5 | binds |
| B6 | binds |
| B7 | binds |
| B8 | binds |
| B9 | binds |
| B10 | binds |
